Among the data in the Immune Epitope Database (IEDB) are Kd values, retold here.

For assay [1], the target named is HLA-A*11:01. As to the kind of experiment: IEDB peptide-MHC binding, purified MHC/direct/fluorescence; filed as Kd, often an IC50 or EC50 that approximates it; ≥ and ≤ were set here for values at or beyond the usual limits of such assays.
The target in assay [2] is HLA-A*01:01. The assay is described as above.
Assay [3] deals with HLA-A*02:01. The assay is described as above. The conditions noted are these: source organism: Bacillus licheniformis.
Assay [4] deals with HLA-B*15:01. The assay is described as above.
The target of assay [5] is HLA-A*69:01. The assay is described as above.
Assay [6] concerns the target HLA-A*03:01. Described as above.
Assay [7] concerns the target HLA-A*31:01. The description is as above.
The target of assay [8] is HLA-A*02:01. As to the kind of experiment: IEDB peptide-MHC binding, purified MHC/competitive/fluorescence; filed as Kd, often an IC50 or EC50 that approximates it; ≥ and ≤ were set here for values at or beyond the usual limits of such assays.
Assay [9] has as its target HLA-A*02:06. As to the kind of experiment: IEDB peptide-MHC binding, purified MHC/competitive/radioactivity; filed as Kd, often an IC50 or EC50 that approximates it; ≥ and ≤ were set here for values at or beyond the usual limits of such assays.
Assay [10] has as its target HLA-A*02:02. The assay is described as above.
In assay [11] the target is HLA-A*02:03. The description is as above.
In assay [12] the target is HLA-B*27:05. As to the kind of experiment: IEDB peptide-MHC binding, purified MHC/direct/fluorescence; filed as Kd, often an IC50 or EC50 that approximates it; ≥ and ≤ were set here for values at or beyond the usual limits of such assays.
Assay [13] addresses HLA-B*39:01. As to the kind of experiment: IEDB peptide-MHC binding, purified MHC/competitive/fluorescence; filed as Kd, often an IC50 or EC50 that approximates it; ≥ and ≤ were set here for values at or beyond the usual limits of such assays.
The target in assay [14] is HLA-A*26:01. The assay is described as follows: IEDB peptide-MHC binding, purified MHC/direct/fluorescence; filed as Kd, often an IC50 or EC50 that approximates it; ≥ and ≤ were set here for values at or beyond the usual limits of such assays.
Assay [15] deals with HLA-A*32:01. The assay is described as follows: IEDB peptide-MHC binding, purified MHC/competitive/radioactivity; filed as Kd, often an IC50 or EC50 that approximates it; ≥ and ≤ were set here for values at or beyond the usual limits of such assays.
Assay [16] deals with HLA-B*40:01. The assay is described as follows: IEDB peptide-MHC binding, purified MHC/direct/fluorescence; filed as Kd, often an IC50 or EC50 that approximates it; ≥ and ≤ were set here for values at or beyond the usual limits of such assays. The conditions noted are these: source organism: Mycobacterium tuberculosis.
Assay [17] addresses HLA-B*07:02. The description is as above. The conditions noted are these: source organism: Homo sapiens.
The target of assay [18] is HLA-B*44:03. The assay is described as follows: IEDB peptide-MHC binding, purified MHC/competitive/radioactivity; filed as Kd, often an IC50 or EC50 that approximates it; ≥ and ≤ were set here for values at or beyond the usual limits of such assays.
Assay [19] deals with HLA-A*23:01. The description is as above. The conditions noted are these: source organism: Dengue virus 2 Jamaica/1409/1983.
Assay [20] deals with HLA-A*24:02. The description is as above. The conditions noted are these: source organism: Dengue virus 2 Jamaica/1409/1983.
[21] abbreviates: source organism: Bacillus licheniformis.
[22] abbreviates: source organism: Vaccinia virus WR.
Where [23] appears, read: source organism: Xanthobacter autotrophicus.
[24] abbreviates: source organism: Cryptosporidium parvum.
The mark [25] stands for this setting: source organism: Dengue virus 2 Jamaica/1409/1983.
The mark [26] stands for this setting: source organism: Dengue virus 1 Brazil/97-11/1997.
Where [27] appears, read: source organism: Burkholderia lata.
Setting [28] is: source organism: Giardia intestinalis.
Where [29] appears, read: source organism: SARS coronavirus Tor2.
Setting [30] is: source organism: Mycoplasmoides genitalium.

pKd: −log10 of the molar value.

ALMEITSRY: the pKd in [1] (setting [21]) is 6.22; in [2] (setting [21]), 5.99; in [3], 5.32; in assay [4] (setting [21]) it was 7.04; in assay [5] (setting [21]), 4.93; in assay [6] (setting [21]) it was 6.59. The sequence further gave a pKd in assay [7] (setting [21]) of 5.28.

AMHDKKIDIL: the pKd in assay [8] (source organism: Variola major virus) was 6.65; in assay [9] (setting [22]) it was at most 4.16; in assay [10] (setting [22]), 6.41; in [11] (setting [22]), 5.93.

For ARLFGIRAK, the pKd is 5.98 in assay [12] (source organism: Homo sapiens), 5.37 in assay [1] (source organism: Homo sapiens), 5.91 in assay [6] (source organism: Homo sapiens) and 5.53 in assay [7] (source organism: Homo sapiens).

With ATDFKFAMY, the pKd in [1] (source organism: Homo sapiens) is 5.62; in assay [2] (source organism: Homo sapiens), 6.87; in assay [4] (source organism: Homo sapiens) it was 5.39; in assay [6] (source organism: Homo sapiens), 5.11.

Regarding ENARLRALL, the negative logarithm of the Kd (pKd) in [13] (source organism: Escherichia coli) was 6.08.

In assay [14] (source organism: West Nile virus), ETPQGLAKI gave a pKd of 5.26.

In turn, FKWGKKIIL showed a pKd in [13] (source organism: Bacillus anthracis str. A0488) of 7.90.

GVWTRDGNR: the pKd in assay [6] (setting [23]) was at most 4.70; in assay [7] (setting [23]) it was 7.23.

Consider HIIIVALTI, for which the pKd in [15] (setting [22]) was 7.10.

On to IILVIIVVI, for which the pKd in assay [15] (setting [22]) is 6.38.

In the case of ILNDEQLNL, the negative-log Kd (pKd) in assay [8] (source organism: Vaccinia virus Tian Tan) was 9.15.

Take ITHFCSFNI: the pKd in assay [15] (setting [22]) was at most 4.68.

As for KINEVVEIF, the pKd in assay [15] (setting [22]) was 7.71.

The sequence KLGIGNSPV had a pKd in assay [8] (source organism: Vaccinia virus Copenhagen) of 8.22.

For KTPVESWEEI, in assay [15] (source organism: Dengue virus 2 Peru/IQT2913/1996), the pKd is 5.79.

On to LEEIGILLL, for which, in [16], the pKd was 7.96.

As for LFSGVSWVMK, the pKd in assay [15] (source organism: Dengue virus 3 Martinique/1243/1999) was 5.00.

Take LPRWPPPQL: the values for the pKd in assay [17] and in assay [5] (source organism: Homo sapiens) were 6.79 and 5.26, respectively.

Consider MIRTWRQNK, for which the pKd in assay [6] (setting [24]) was 6.65; in assay [7] (setting [24]), 6.44.

With MTMKMMVHI, the pKd in assay [15] (setting [22]) was 8.32.

Consider NMKWKFNAL, for which the pKd in [8] (source organism: Campylobacter jejuni subsp. jejuni NCTC 11168 = ATCC 700819) is at most 4.70.

For the sequence QTDPLWQKY, the negative-log Kd (pKd) in assay [14] (source organism: Vibrio vulnificus CMCP6) is 5.56.

As for QWFLDLPLPW, the pKd in assay [18] (setting [25]) is 5.56; in assay [19] it was 7.93; in [20], 6.94.

Regarding RETACLGKSY, the pKd in assay [18] (setting [26]) was 7.15.

Take RLENVMWKQI: in assay [15] (source organism: Dengue virus 4 Dominica/814669/1981), the pKd was 5.74.

For SEIPNLDIIG, the pKd in assay [18] (setting [25]) is 5.96.

As for SINDPRWGR, the pKd in assay [6] (setting [27]) was at most 4.70; in [7] (setting [27]) it was 7.56.

For the sequence SIYGFGVTF, the pKd in assay [15] (setting [22]) was 9.95.

As for SLRPNDIVY, the pKd in [1] (setting [28]) was 5.15; in assay [4] (setting [28]), 6.82; in assay [6] (setting [28]), 4.87.

Consider SSKNQTWQIE, for which the pKd in assay [15] (source organism: Dengue virus 4 Philippines/H241/1956) was at most 4.50.

For TEAKMLLDNI, the pKd in assay [18] (setting [26]) is 6.21.

In the case of TLAAAANSY, the pKd in [4] (source organism: Mycobacterium tuberculosis C) is 6.24.

Regarding TLFPGDDDL, the pKd in assay [8] (setting [22]) is 6.40.

TLMNVITLV: the pKd in [12] (source organism: SARS-CoV1) is 5.00; in assay [1] (source organism: SARS-CoV1) it was at most 4.57; in [14] (source organism: SARS-CoV1) it was 5.95; in [4] (source organism: SARS-CoV1), 5.21; in assay [9] (setting [29]) it was 9.16; in [10] (setting [29]), 9.47. Further, the pKd in [11] (setting [29]) was 9.60.

Regarding TVIFQTVVI, in [15] (setting [22]), the pKd was 6.24.

Regarding WRFQGSWNTG, the pKd in assay [15] (setting [26]) was at most 4.31.

On to YSDIPRLKK, for which the pKd in assay [1] (setting [30]) was 7.03; in assay [2] (setting [30]), 5.79; in assay [5] (setting [30]), 6.38; in assay [6] (setting [30]), 6.43; in assay [7] (setting [30]), 6.12.

A word on the pKd: it is the Kd on a negative log10 scale, so that one unit is a factor of ten.
